According to US20240115683A1 (ULTRAGENYX PHARMACEUTICAL, published 2024):

Biological target: T1, human FGF23 (fibroblast growth factor 23) (human, UniProt Q9GZV9 25-251)
T1 construct: In the total FGF23 ECLA the FGF23 was recombinant human FGF23 (standards) and endogenous FGF23 in patient serum (samples); It may include the signal peptide; also called recombinant human FGF23; rhFGF23
T1 sequence: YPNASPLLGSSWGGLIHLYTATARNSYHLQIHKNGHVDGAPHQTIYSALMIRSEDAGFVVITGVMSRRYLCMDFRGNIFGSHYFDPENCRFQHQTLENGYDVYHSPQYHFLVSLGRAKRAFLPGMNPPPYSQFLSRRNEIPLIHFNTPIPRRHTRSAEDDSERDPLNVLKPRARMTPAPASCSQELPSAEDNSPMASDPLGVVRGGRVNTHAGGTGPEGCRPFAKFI
Test: total FGF23 ECLA; rhFGF23 standards and serum samples incubated with excess KRN23, complex detected
Method: The mean values of serum total intact FGF23 levels at Baseline were recorded. The total FGF23 ECLA assay measures endogenous FGF23 in the presence of KRN23, whether complexed or unbound in serum. Standards (recombinant human FGF23 [rhFGF23]) and samples are incubated with excess amounts of KRN23 in a buffer matrix then detected by the assay. The assay measures the KRN23/FGF23 complex, which represents all endogenous FGF23 in the sample.

binding result: binds
B1: KRN23 (antibody, human IgG1, kappa, V domains shown)
VH: QVQLVQSGAEVKKPGASVKVSCKASGYTFTNHYMHWVRQAPGQGLEWMGIINPISGSTSNAQKFQGRVTMTRDTSTSTVYMELSSLRSEDTAVYYCARDIVDAFDFWGQGTMVTVSS
VL: AIQLTQSPSSLSASVGDRVTITCRASQGISSALVWYQQKPGKAPKLLIYDASSLESGVPSRFSGSGSGTDFTLTISSLQPEDFATYYCQQFNDYFTFGPGTKVDIKR
notes: also called anti-FGF23 antibody KRN23; recombinant fully human monoclonal IgG1 antibody
